The record followed here is article PMC5605233, “Crystal structure of the N-terminal domain of human Timeless and its interaction with Tipin” (Nucleic Acids Research, 2017).

Data set [1] deals with human Tipin, N-terminal 10xHis tag, co-expressed with Timeless (human) (UniProt Q9BVW5). The data set is described as follows: native MS + SEC-MALS; purified Timeless-Tipin complex; nanoESI-MS in 0.20 M ammonium acetate pH 7.0, 5-10 μM; SEC-MALLS.
Data set [2] deals with the molecule itself. As to the kind of experiment: SEC-MALS; Superdex 200 Increase 10/300, 25°C, 1-2 mg/ml (100 μl injection), 25 mM Hepes 7.2, 150 mM KCl, 50 mM Arginine, 50 mM Glutamate.

Sequence of human Tipin, N-terminal 10xHis tag, co-expressed with Timeless (human) (Q9BVW5 whole entry): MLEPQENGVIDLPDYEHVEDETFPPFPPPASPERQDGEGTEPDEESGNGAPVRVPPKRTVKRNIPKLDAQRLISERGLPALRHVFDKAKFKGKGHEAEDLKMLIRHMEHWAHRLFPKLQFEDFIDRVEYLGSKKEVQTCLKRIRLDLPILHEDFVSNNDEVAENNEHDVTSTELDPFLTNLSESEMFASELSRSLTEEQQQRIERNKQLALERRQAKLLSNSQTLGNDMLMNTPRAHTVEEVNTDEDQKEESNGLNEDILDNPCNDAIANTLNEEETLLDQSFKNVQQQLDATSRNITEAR

As to “human Timeless, full-length, N-terminal twin-strep tag, co-expressed with Tipin (from UniProt Q9UNS1 1-1208) (natural protein)”, in data set [1], the stoichiometry N (Timeless:Tipin) stood at 1.

B1: TimN(Δ239-330): Timeless 1-463 with residues 239-330 replaced by the linker GSTGST (domain or fragment, human)
chain: MDLHMMNCELLATCSALGYLEGDTYHKEPDCLESVKDLIRYLRHEDETRDVRQQLGAAQILQSDLLPILTQHHQDKPLFDAVIRLMVNLTQPALLCFGNLPKEPSFRHHFLQVLTYLQAYKEAFASEKAFGVLSETLYELLQLGWEERQEEDNLLIERILLLVRNILHVPADLDQEKKIDDDASAHDQLLWAIHLSGLDDLLLFLASSSAEEQWSLHVLEIVSLMFRDQNPEQLAGVGGSTGSTQRRSALNVRLFLRDFCSEFLENCYNRLMGSVKDHLLREKAQQHDETYYMWALAFFMAFNRAASFRPGLVSETLSVRTFHFIEQNLTNYYEMMLTDRKEAASWARRMHLALKAYQELLATVNEMDISPDEAVRE
notes: human Timeless, residues 1-238; 6-residue linker in place of residues 239-330; human Timeless, residues 331-463; Dimer in solution and in the crystal; the authors think the dimer is likely an artifact of construct design; also called Timeless(1-463_(Δ239-330)); source: E. coli Rosetta2(DE3), purified (Ni-NTA, HiTrap Q, SEC)
Consider B1, for which the “stoichiometry N” value in data set [2] is 2.

Broadly, the stoichiometry N is a count of units in the complex or per binding partner.
